The text below walks through data of patent EP4793290A2.

The target of this experiment is mouse PD-L1 (mouse) (UniProt Q9EP73). Kind of experiment: flow cytometry on DOdKO-mPD-L1/mCD80 cells pretreated with 10 µg/ml TKMG48.
Sequence of mouse PD-L1 (mouse) (Q9EP73 19-290 limits assumed): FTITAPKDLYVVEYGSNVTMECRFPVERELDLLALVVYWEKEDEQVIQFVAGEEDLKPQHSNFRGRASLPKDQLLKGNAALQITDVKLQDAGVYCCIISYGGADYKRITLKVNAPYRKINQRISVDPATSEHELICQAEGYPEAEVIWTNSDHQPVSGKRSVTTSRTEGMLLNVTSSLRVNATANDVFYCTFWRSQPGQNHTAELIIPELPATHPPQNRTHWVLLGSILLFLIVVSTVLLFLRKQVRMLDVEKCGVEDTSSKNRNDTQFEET

Sequence of soluble mouse PD-1 extracellular region (PD-1-EC) protein (Q02242 other isoform, or with tags, fused parts or gaps): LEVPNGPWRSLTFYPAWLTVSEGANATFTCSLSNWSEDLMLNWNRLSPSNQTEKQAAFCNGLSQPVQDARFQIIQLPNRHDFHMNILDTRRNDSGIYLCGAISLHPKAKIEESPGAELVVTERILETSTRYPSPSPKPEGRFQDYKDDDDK

With “soluble mouse PD-1 extracellular region (PD-1-EC) protein (from UniProt Q02242 25-167) (receptor)”, the amount of binding (mean fluorescence intensity) relative to control IgG pretreatment worked out at 10.1 times.
